Km, kcat and kcat/Km data for one protein are collected here from PMC6999076, “Engineered disulfide bonds improve thermostability and activity of L‐isoleucine hydroxylase for efficient 4‐HIL production in Bacillus subtilis 168” (Engineering in Life Sciences, 2019).

Substrate in data set [1]: CC[C@H](C)[C@H](N)C(=O)O
The data set is described as follows: DNFB precolumn derivatization HPLC of 4-HIL; Michaelis-Menten fit. In kind it is biochemical, Bacillus cereus. Conditions: 20 mM alpha-KG, assay: 1 mM FeSO4, 5 mM ascorbic acid, PBS pH 7.0, 30°C.

Substrate in data set [2]: O=C(O)CCC(=O)C(=O)O
The data set is described as above. Conditions: 20 mM L-Ile, assay: 1 mM FeSO4, 5 mM ascorbic acid, PBS pH 7.0, 30°C. In kind it is biochemical, Bacillus cereus.

B1: L-isoleucine hydroxylase (IDO) (Bacillus cereus ATCC 14579) (protein)
chain: MTFVLSKMNGFSIEEKVHEFESKGFLEISNEIFLQEEENHRLLTQAQLDYYNLEDDAYGECRARSYSRYIKYVDSPDYILDNSNDYFQSKEYNYDDGGKVRQFNSINDSFLCNPLIQNIVRFDTEFAFKTNIIDTSKDLIIGLHQVRYKATKERPSFSSPIWLHKDDEPVVFLHLMNLSNTAIGGDNLIANSPREINQFISLKEPLETLVFGQKVFHAVTPLGTECSTEAFRDILLVTFSYKETK
notes: full-length, 6xHis tag (downstream primer, C-terminal) kept; free cysteines C61, C112, C226; GenBank AE016877.1 is a whole-genome record (B. cereus ATCC 14579), not a gene record
In general, Km refers to the concentration of substrate that gives half-maximal velocity. The term kcat denotes the number of substrate molecules converted per active site and unit of time at saturation. As a reminder, the kcat/Km is the turnover number divided by the Michaelis constant. With B1, in data set [1], the Km came out at 0.26 mM, the kcat was 0.84 s⁻¹ and the kcat/Km worked out at 3180 M⁻¹ s⁻¹. In data set [2], the Michaelis-Menten constant (Km) worked out at 3.34 mM, the kcat worked out at 0.32 s⁻¹ and the kcat/Km is 90 M⁻¹ s⁻¹.
